Source: US9144594B2, “Cathepsin L mediated diseases and associated methods and products” (University of Miami, priority 2005, dated 2015)

Experiments:
[1] = system: dynamin-dynamin interactions; assay: FLIM analysis of dynamin-dynamin interactions (self-assembly) in podocytes; type: cell-based, mouse; conditions: Table 1; donor GTPase-Alexa488, acceptor Hudy1-Alexa568; podocytes overexpressing the dynamin variant; in ps
Procedure, shortened: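 Dynamin overexpressed in podocytes by adenovirus. Fixed cells stained with equal amounts of anti-dynamin monoclonal antibodies conjugated to Alexa-488 (donor) or Alexa-568 (acceptor). Self-assembly scored by FRET-shortened Alexa-488 fluorescence lifetime (acceptor within ≈100 Å).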

mice = assay: Protein in urine after in vivo gene delivery of dynamin mutants into healthy mice (Bradford); parameters: species or system mouse
Method: Next, the level of urinary protein loss following gene delivery of dynamin mutants was examined (Table 2). […] The expression of K44A was associated with severe proteinuria (1.18 mg/ml) at peak gene expression time of 10 hours post injection. The reduction in gene expression was paralleled by a reduction in proteinuria (0.77 mg/ml). Gene transfer of dynR725A caused an increase in proteinuria (0.58 mg/ml). Although this was not a significant increase, it is probable that it is a consequence of the partial podocyte FP effacement seen after gene transfer of dynR725A, and due to increase in the stress fibers formation observed in cultured podocytes.
To explore whether functional dynamin is required for the maintenance of FP morphology in healthy kidneys, it was examined whether expression of dominant negative dynK44A disrupts podocyte function. […] In contrast, podocin driven expression of dynK44A, the dynamin mutant that cannot bind GTP, caused FP effacement (FIG. 21B) and proteinuria (1.1±0.26 mg/ml) at the peak of gene expression […] after gene delivery (FIGS. 21D and 25C). […] In other words, tight regulation of the life-time of the GTP-bound form of dynamin appears to be required for normal FP morphology and ultrafiltration.
CatL plasmids encoding short and long CatL (Goulet et al., Biol Chem 387, 1285-1293 (2004)), Dyn1 plasmids (pcDNA-driven) or p2.5 Podocin-driven (Moeller et al., Genesis 35, 39-42 (2003)) were introduced into mice (n>10, each construct) using the TransIT in vivo gene delivery system according to the manufacturer's instruction (Mirus Bio Corporation, Madison, Wis.). 10 and 24 h after gene delivery, proteinuria was assessed by Multistix 8 SG strips (Bayer Corporation, Elkhart, Ind.), and Bradford protein assay (Sigma, Saint Louis, Mo.). From the same urines the protein creatinine ratio was determined with Albuwell M and Creatinine Companion protein creatinine ELISA kits (Exocell Inc., Philadelphia, Pa.).

B1: dynR725A: dynamin mutant (SEQ ID NO.4) with impaired GTP hydrolysis capacity (protein, listed as Homo sapiens)
chain: MGNRGMEDLIPLVNRLQDAFSAIGQNADLDLPQIAVVGGQSAGKSSVLENFVGRDFLPRGSGIVTRRPLVLQLVNATTEYAEFLHCKGKKFTDFEEVRLEIEAETDRVTGTNKGISPVPINLRVYSPHVLNLTLVDLPGMTKVPVGDQPPDIEFQIRDMLMQFVTKENCLILAVSPANSDLANSDALKVAKEVDPQGQRTIGVITKLDLMDEGTDARDVLENKLLPLRRGYIGVVNRSQKDIDGKKDITAALAAERKFFLSHPSYRHLADRMGTPYLQKVLNQQLTNHIRDTLPGLRNKLQSQLLSIEKEVEEYKNFRPDDPARKTKALLQMVQQFAVDFEKRIEGSGDQIDTYELSGGARINRIFHERFPFELVKMEFDEKELRREISYAIKNIHGIRTGLFTPDMAFETIVKKQVKKIREPCLKCVDMVISELISTVRQCTKKLQQYPRLREEMERIVTTHIREREGRTKEQVMLLIDIELAYMNTNHEDFIGFANAQQRSNQMNKKKTSGNQDEILVIRKGWLTINNIGIMKGGSKEYWFVLTAENLSWYKDDEEKEKKYMLSVDNLKLRDVEKGFMSSKHIFALFNTEQRNVYKDYRQLELACETQEEVDSWKASFLRAGVYPERVGDKEKASETEENGSDSFMHSMDPQLERQVETIRNLVDSYMAIVNKTVRDLMPKTIMHLMINNTKEFIFSELLANLYSCGDQNTLMEESAEQAQRADEMLRMYHALKEALSIIGDINTTTVSTPMPPPVDDSWLQVQSVPAGRRSPTSSPTPQRRAPAVPPARPGSRGPAPGPPPAGSALGGAPPVPSRPGASPDPFGPPPQVPSRPNRAPPGVPSRSGQASPSRPESPRPPFDL
For B1, the “Mean Lifetime (γ1)” value [1] was 2408 ± 128, the “Protein in the urine” value (mice; Table 2A, gene delivery into mice, t = 0) was 0.26 ± 0.13 mg/mL and the “Protein in the urine” value (mice; Table 2A, gene delivery into mice, t = 10 h) was 0.58 mg/mL. The “Protein in the urine” value (mice; Table 2A, gene delivery into mice, t = 10 h, listed as Dyn R725A) was 0.58 ± 0.17 mg/mL, the “Protein in the urine” value (mice; Table 2A, gene delivery into mice, t = 24 h) was 0.20 ± 0.05 mg/mL and the “Protein in the urine” value (mice; Table 5 Basic Phenotype, podocin-driven vectors, t = 14 h) was 0.88 ± 0.21 mg/mL.
